Data on 17 molecules can be found in patent publication US20240150440A1 (LUMEN BIOSCIENCE, published 2024).

In experiment [1] the target is T1, SARS-CoV-2 spike protein on pseudotyped lentivirus (Wuhan Reference Pseudovirus) (SARS-CoV-2, UniProt P0DTC2 14-1273). The experiment can be described thus: cell-based or functional assay.
Experiment [2] deals with T2, recombinant SARS-CoV-2 RBD with C-terminal AviTag (SARS-CoV-2, UniProt P0DTC2 319-541). The experiment can be described thus: BLI, biotinylated RBD on streptavidin biosensors [Cont. 2]. On the technique in general: BLI is a label-free optical method that tracks binding on a fibre tip over time.
Experiment [3] concerns the target T1, SARS-CoV-2 spike protein on pseudotyped …. The experiment can be described thus: cell-based or functional assay. The source holds these as a separate data set.
The target in experiment [4] is T2, recombinant SARS-CoV-2 RBD with …. The experiment can be described thus: ELISA, competition with coated ACE2-Fc for RBD [Cont. 1].
For experiment [5] the target is unchanged. The experiment can be described thus: BLI, biotinylated RBD on streptavidin biosensors; OR: over-range [Cont. 1].
The target is the same in experiment [6]. Nature of the experiment: BLI, biotinylated RBD on streptavidin biosensors; OR: over-range [Cont. 2].
Experiment [7] has as its target T1, SARS-CoV-2 spike protein on pseudotyped …. The experiment can be described thus: cell-based or functional assay. The source holds these as a separate data set.
Experiment [8] has the same target. Nature of the experiment: cell-based or functional assay. The source holds these as a separate data set.
The target in experiment [9] is T3, SARS-CoV-2 Alpha Variant RBD (SARS-CoV-2 Alpha variant).
T3 construct: domain: RBD; coated on ELISA plates
Nature of the experiment: ELISA, RBD coated. (In an ELISA, binding on a coated surface is turned into a signal by an enzyme label.)

The target in experiment [10] is T4, SARS-CoV-2 Beta Variant RBD (SARS-CoV-2 Beta variant).
T4 construct: domain: RBD; coated on ELISA plates
Nature of the experiment: ELISA, RBD coated.

Experiment [11] addresses T5, SARS-CoV-2 Gamma Variant RBD (SARS-CoV-2 Gamma variant).
T5 construct: domain: RBD; coated on ELISA plates
The experiment can be described thus: ELISA, RBD coated.

In experiment [12] the target is T1, SARS-CoV-2 spike protein on pseudotyped …. Nature of the experiment: cell-based or functional assay. The source holds these as a separate data set.
Experiment [13] addresses T2, recombinant SARS-CoV-2 RBD with …. Nature of the experiment: BLI, biotinylated RBD on streptavidin biosensors [Cont. 4].
The target is the same in experiment [14]. Nature of the experiment: ELISA, competition with coated ACE2-Fc for RBD [Cont. 4].
In experiment [15] the target is T6, SARS-CoV-2 Delta Variant RBD (SARS-CoV-2 Delta variant).
T6 construct: domain: RBD; coated on ELISA plates
Nature of the experiment: ELISA, RBD coated.

For experiment [16], the target named is SARS-CoV-2 Delta Variant spike protein on pseudotyped lentivirus (SARS-CoV-2 Delta variant). Nature of the experiment: cell-based or functional assay.
For experiment [17], the target named is T1, SARS-CoV-2 spike protein on pseudotyped …. Nature of the experiment: cell-based or functional assay. The source holds these as a separate data set.
Experiment [18] deals with SARS-CoV-2 Gamma Variant spike protein on pseudotyped lentivirus (SARS-CoV-2 Gamma variant). The experiment can be described thus: cell-based or functional assay.
In experiment [19] the target is T2, recombinant SARS-CoV-2 RBD with …. The experiment can be described thus: BLI, biotinylated RBD on streptavidin biosensors; OR: over-range.
Experiment [20] has the same target. Nature of the experiment: ELISA, competition with coated ACE2-Fc for RBD.

B1: PP821 MBP-R5A-D6-H6 (VHH)
VHH: QVQLVESGGGLVQPGGSLRLSCAASGNDWYINSAHWYRQAPGKEREFVASVSRGGSNNYRDSVKGRFTISRDNAKNTVYLQMNSLKPEDTAVYYCAALLETSSGDYTYWGQGTQVTVSS
notes: Form: Monomer
Broadly, the Kd is a measure of binding affinity in units of concentration. Consider B1, for which the “infectivity % under 10 ug/mL VHH treatment” value (“infectivity %” below) in experiment [1] was 76.7%. The Kd in [2] is 100 nM.

B2: dimeric VHH (VHH-5HVZ-MBP) R2C-F6 (VHH)
VHH: QVQLVESGGGLVQPGGSLRLSCAASGRILAANIVHWYRQAPGKEREGVAGITTGGSNYYSDSVKGRFTISRDNAKNTVYLQMNSLKPEDTAVYYCNALGLGSASGSYESWGQGTQVTVSS
Broadly, the IC50 is the point on the concentration scale where inhibition reaches its midpoint. In the case of B2, the “Pseudovirus inhibition IC50 [Cont. 1]” value in [3] is 92.4 nM. For the same molecule, in experiment [4], the IC50 stood at 6.5 nM. The equilibrium dissociation constant (Kd) in experiment [5] is roughly 0.96 nM.

B3: PP810 MBP-R2D-A6-H6 (VHH)
VHH: QVQLVESGGGLVQPGGSLRLSCAASGSGASIGAMHWFRQAPGKGREWVASITSAGNTYYGDSVKGRFTISRDNAKNTVYLQMNSLKPEDTAVYYCNALAGANYESQWEEYNYWGQGTQVTVSS
notes: Form: Monomer
Turning to B3, the “infectivity %” value in [1] was 77.5%. Besides, in experiment [4], the half-inhibitory concentration (IC50) amounted to 0.1 nM. The Kd in experiment [5] was roughly 4600 nM.

B4: PP817 MBP-R5A-B3-H6 (VHH)
VHH: QVQLVESGGGLVQPGGSLRLSCAASGQLDRSNAMAWFRQAPGKGREWVASITSGASTQYADSVKGRFTISRDNAKNTVYLQMNSLKPEDTAVYYCAADRYRAIQRTQYSWGQGTQVTVSS
notes: Form: Monomer
As for B4, the “infectivity %” value in [1] amounted to 80%. Besides, in [6], the Kd was roughly 5170 nM.

B5: PP1140 MBP-4B0F-PAPA-R5d-B6-H6 (VHH)
VHH: QVQLVESGGGLVQPGGSLRLSCAASGRILAANIVHWYRQAPGKEREGVAGITSGGGSYYADSVKGRFTISRDNAKNTVYLQMNSLKPEDTAVYYCNALGLGQSSLYRSADPYDSWGQGTQVTVSS
notes: Form: Heptamer
For B5, the “infectivity %” value in experiment [1] stood at 2.47%. In addition, the “Pseudovirus neutralization IC50” value in [7] was 2.07 nM. In addition, the “Pseudovirus inhibition IC50 [Cont. 5]” value in [8] was found to be 7.04 nM.

B6: PP811 MBP-R2D-D3-H6 (VHH)
VHH: QVQLVESGGGLVQPGGSLRLSCAASGHIFSINNAAWVRQAPGKSREGVATIHSGGGTYYSDSVKGRFTISRDNAKNTVYLQMNSLKPEDTAVYYCNAEVSTGAGSRGRVSDVYWGQGTQVTVSS
notes: Form: Monomer
On to B6, for which the “infectivity %” value in [1] turned out to be 75.9%. Further, the Kd in [5] was roughly 27000 nM.

B7: PP815 MBP-R5A-A1-H6 (VHH)
VHH: QVQLVESGGGLVQPGGSLRLSCAASGAELSYTAIHWFRQAPGKQREFVATINSGGSSYYADSVKGRFTISRDNAKNTVYLQMNSLKPEDTAVYYCTALLDSTYDYWGQGTQVTVSS
notes: Form: Monomer
B7: the “infectivity %” value in [1] came out at 84.4%. The Kd in [6] is roughly 2700 nM.

B8: PP1113 MBP-5HVZ-PAPA-RN-29-H6 (VHH)
VHH: QVQLVESGGGLVQPGGSLRLSCAASGYILSENLTAWFRQAPGKAREVVATVTSGDYTNYDDSVKGRFTISRDNAKNTVYLQMNSLKPEDTAVYYCAAGTSDWEVKWSHWGQGTQVTVSS
notes: Form: Dimer
As usually defined, the EC50 is the concentration giving half of the maximal effect. For B8, the EC50 worked out at 0.72 nM in experiment [9], 5.64 nM in experiment [10] and 3.37 nM in experiment [11]. Moreover, the “infectivity %” value in experiment [1] came to 6.25%. For the same molecule, in experiment [7], the “Pseudovirus neutralization IC50” value worked out at 7.09 nM. Further, the “Pseudovirus inhibition IC50 [Cont. 9]” value in [12] came out at 9.38 nM.

B9: MBP-5HVZ-R5C-G2-H6 (VHH)
VHH: QVQLVESGGGLVQPGGSLRLSCAASGSATSINRMAWVRQAPGKEREWVAVIDSGGYTYYADSVKGRFTISRDNAKNTVYLQMNSLKPEDTAVYYCNAVPVTTDKTPMYQYWGQGTQVTVSS
notes: dimer
For the molecule B9, in [13], the dissociation constant (Kd) amounted to 29.6 nM. Moreover, the concentration for half-maximal inhibition (IC50) in [14] was 121 nM.

B10: PP1150 MBP-5HVZ-PAPA-R5b-G1-H6 (VHH)
VHH: QVQLVESGGGLVQPGGSLRLSCAASGSIGQIVLVHWFRQAPGKQRELVAGITSPSSTYYADSVKGRFTISRDNAKNTVYLQMNSLKPEDTAVYYCNTELEGKTQGFTGKTVWYDYWGQGTQVTVSS
notes: Form: Dimer
For B10, the 50% effective concentration (EC50) in experiment [9] was found to be 20.1 nM; in experiment [15], 0.86 nM. The “infectivity %” value in experiment [1] came to 2.31%. The “Pseudovirus neutralization IC50” value amounted to 2.72 nM in [7] and 0.43 nM in [16]. Besides, in experiment [17], the “Pseudovirus inhibition IC50 [Cont. 3]” value stood at 2.33 nM.

B11: MBP-5HVZ-R5B-G1-H6 (VHH)
VHH: B10 VHH
In the case of B11, the “Pseudovirus inhibition IC50 [Cont. 3]” value in experiment [17] turned out to be 5.82 nM.

B12: PP1107 MBP-5HVZ-PAPA-RN-22-H6 (VHH)
VHH: QVQLVESGGGLVQPGGSLRLSCAASGSISEINLLHWFRQAPGKQREWVATMTSGGSTDYADSVKGRFTISRDNAKNTVYLQMNSLKPEDTAVYYCAADEFTKYGHGRYWGQGTQVTVSS
notes: Form: Dimer
B12: the values for the concentration giving a half-maximal response (EC50) in [9], in experiment [10] and in experiment [11] were 0.28 nM, 0.25 nM and 0.18 nM, respectively. Moreover, in [1], the “infectivity %” value amounted to 34.3%. For the same molecule, the “Pseudovirus neutralization IC50” value in experiment [7] worked out at 32.9 nM; in experiment [18], 0.649 nM. Also, in experiment [12], the “Pseudovirus inhibition IC50 [Cont. 9]” value came to 110 nM.

B13: PP803 MBP-R2A-F3-H6 (VHH)
VHH: QVQLVESGGGLVQPGGSLRLSCAASGSITSINWMHWFRQAPGKDREGVASISQTGRGSYADSVKGRFTISRDNAKNTVYLQMNSLKPEDTAVYYCAAASRTGTPYNYWGQGTQVTVSS
notes: Form: Monomer
B13: in experiment [1], the “infectivity %” value is 70.7%. The equilibrium dissociation constant (Kd) in [19] was roughly 1900 nM.

B14: PP814 MBP-R2E-F4-H6 (VHH)
VHH: QVQLVESGGGLVQPGGSLRLSCAASGETFSSNAMHWFRQAPGKGREFVAAITSGGNDNYSDSVKGRFTISRDNAKNTVYLQMNSLKPEDTAVYYCNAPATEDTSHYPRNYWGQGTQVTVSS
notes: Form: Monomer
Regarding B14, the “infectivity %” value in [1] came out at 84.7%. Also, in [6], the equilibrium dissociation constant (Kd) is roughly 1600 nM.

B15: PP836 MBP-R5D-A1-H6 (VHH)
VHH: QVQLVESGGGLVQPGGSLRLSCAASGSISSYNAMHWFRQAPGKQREWVAGLTSSGSDGYVDSVKGRFTISRDNAKNTVYLQMNSLKPEDTAVYYCNAFSYHTYSRYDFWGQGTQVTVSS
notes: Form: Monomer
As to B15, in [1], the “infectivity %” value turned out to be 55%. Moreover, the dissociation constant (Kd) in experiment [13] stood at 527 nM. Besides, the half-inhibitory concentration (IC50) in experiment [14] amounted to 6.2 nM.

B16: PP807 MBP-R2C-B3-H6 (VHH)
VHH: QVQLVESGGGLVQPGGSLRLSCAASGTYASYETIAWYRQAPGKQREKVARITGAGSSFYADSVKGRFTISRDNAKNTVYLQMNSLKPEDTAVYYCNADSIPPALRAANTGYWGQGTQVTVSS
notes: Form: Monomer
Take B16: the “infectivity %” value in experiment [1] came to 75.3%. Also, in experiment [20], the IC50 is 148 nM. Moreover, the equilibrium dissociation constant (Kd) in experiment [19] was roughly 950 nM.

B17: PP833 MBP-R5C-F6-H6 (VHH)
VHH: QVQLVESGGGLVQPGGSLRLSCAASGQTNSILAMHWYRQAPGKQREAVATITSGSNSTYADSVKGRFTISRDNAKNTVYLQMNSLKPEDTAVYYCAARNGKLSPKANQRLYWGQGTQVTVSS
notes: Form: Monomer
On to B17, for which the “infectivity %” value in experiment [1] turned out to be 86.2%. Besides, the Kd in [13] was 100 nM.
